Test results taken from patent US20260069656A1, “Nutritive Polypeptides and Formulations Thereof, and Methods of Production and Use Thereof” (Axcella Health Inc., priority 2013, published 2026).

Assays:
[1] = Intact half-life during simulated gastric fluid (SGF) digestion; settings: for SGF Half-life (t½): SGF pH 1.5, pepsin:polypeptide 1:20 w/w, 37° C., produced in E. coli unless otherwise noted; for Half-life: purified proteins, chip electrophoresis, SGF
[2] = SGF digest of the 168 nutritive polypeptide library, intact protein by LC-MS/MS spectral counts; format: in vitro ADME; settings: proteins detected in the 168 nutritive polypeptide library
Experimental: Nutritive polypeptide intact half-life determination in a complex mixture. The in vitro intact half-life of multiple polypeptides in a complex mixture was determined using the simulated gastric in vitro digestion described above. Briefly, the 168 nutritive polypeptide library was generated as described herein by cloning, transforming, and expressing a gene library encoding 168 proteins as a single mixture. The recombinantly expressed proteins were purified from host cell proteins by IMAC purification as described herein.
The 168 Protein Library was treated with SGF as described above and the t=0 and t=10 min samples were analyzed for intact protein by LC-MS/MS. To begin, 10 μg of sample was loaded onto a 10% SDS-PAGE gel (Invitrogen) and run approximately 5 cm into the gel. The gel was excised into ten fractions from 100 kD to the dye front and the gel slices were processed by washing with 25 mM ammonium bicarbonate, followed by acetonitrile. Gel fractions were then reduced with 10 mM dithiothreitol at 60° C., followed by alkylation with 50 mM iodoacetamide at room temperature. Finally, the samples were digested with trypsin (Promega) at 37° C. for 4 h and the digestions were quenched with the addition of formic acid. The samples were then analyzed by nano LC/MS/MS using an EasynLC 1000 HPLC system interfaced to a ThermoFisher Q Exactive. Peptides were loaded on a trapping column and eluted over a 75 μm analytical column at 350 nL/min; both columns were packed with PepMap C18 3 μm resin (ThemoFisher). A 1 hour gradient was employed. The mass spectrometer was operated in data-dependent mode, with MS and MS/MS performed in the Orbitrap at 70,000 FWHM resolution and 17,500 FWHM resolution, respectively. The fifteen most abundant ions were selected for MS/MS. Data were searched against an appropriate database using Mascot to identify peptides. Mascot DAT files were parsed into the Scaffold software for validation, filtering and to create a nonredundant list per sample. Data were filtered at 1% protein and peptide false discovery rate (FDR) and requiring at least two unique peptides per protein. A full list of detected proteins and their spectral counts (SpC) was generated and reported as a function of each collected gel fraction. SpC are a count of the number of spectra identified for a given protein and are used as a measure of relative protein abundance (Liu, H. et al., Analytical Chemistry 2004, 76:4193-4201). To calculate the percentage of intact protein remaining at the 10 min time point of the SGF digest the number of SpC representative of intact peptide in the t=10 min sample were divided by the number of SpC representative of intact peptide in the t=0 min sample. The number of SpC representative of intact peptide was defined as the sum of the SpC in the fraction with the highest number of SpC assigned to that protein in the t=0 min sample and the two flanking fractions.

[3] = system: kinase activity of SEQID-00338 (AMP + ATP→2ADP); assay: Kinase activity of SEQID-00338 and mutants, ADP-Glo Max Assay; format: biochemical; settings: 7 μg/mL, 30 minute reaction at 30° C.; N=2
Experimental: Determination of the kinase activity of SEQID-00338. The ADP-Glo™ Max Assay was obtained from Promega (Catalog number V7001, Madison, WI). Adenosine Monophosphate was obtained from Sigma-Aldrich (Catalog number A1752, St. Louis, MO). 5× Kinase Buffer was prepared w/1.211 g Tris Base (Catalog number BP152-2, Fisher Bioreagents, Pittsburgh, PA), 692 μL 12% hydrochloric acid solution (Catalog number BDH3026-500MLP, VWR, Radnor, PA), 10.0 mL 500 mM magnesium chloride (Catalog number BP214-500, Fisher Bioreagents, Pittsburgh, PA) and the volume brought to 50 mL with MilliQ water and filtered through 0.22 μm PES filter (Catalog number SCGP00525, Millipore, Billerica, MA) into a sterile 50 mL tube.
Twelve his-tag purified mutant proteins and the wild-type protein at 35 μg/mL in Tris buffer were serially diluted to 7.0 and 1.4 μg/mL. Prepared kinase reaction mix at 0.5 mM AMP/0.5 mM ATP to test for activity and at 0 mM AMP/0 mM ATP to assay background activity by diluting 5× Kinase Buffer with appropriate volumes of 10 mM AMP and 10 mM ATP in MilliQ water. Duplicate reactions were prepared by mixing 9 μL of the reaction mixture with 6 μL of diluted SEQID-00338, mixing by pipetting up and down and dispensing 5 μL into a 384-well white OptiPlate (PerkinElmer, Waltham, MA). An ADP standard curve was prepared by serially diluting 4 mM ADP in MilliQ water and adding kinase buffer to 1× for a standard at 0.0005, 0.001, 0.005, 0.01, 0.05, 0.1, 1.5, 1, 2, 3, and 4 mM ADP. The plate was covered with a foil plate seal and incubated at 30° C. for 30 min. Following the kinase reaction, 5 μL of ADP-Glo™ Reagent was added to each well. The plate was sealed with a foil plate seal and placed on a horizontal plate shaker at 450 rpm for 2 minutes at room temperature. The plate was removed from the plate shaker and incubated at room temperature for 40 minutes. The plate was then centrifuged for 15 seconds at 1109× rcf and 10 μL of ADP-Glo™ Max Detection Reagent was added. The plate was sealed with a foil plate seal and shaken on a horizontal plate shaker at 450 rpm at room temperature for 2 minutes. The plate was then removed from the plate shaker and incubated at room temperature for 60 minutes. The plate was centrifuged for 15 seconds at 1109× rcf and the luminescence read on an EnspireAlpha plate reader (PerkinElmer, Waltham, MA).
The ADP standard curve was used to determine the concentration of ADP in sample wells in the presence or absence of substrate. Concentrations were determined by performing a non-linear 4 parameter logistic on the X=log(X) transformed ADP standard luminescence values. […] Where the background concentration of ADP in the absence of substrate was calculable the average of those values were subtracted from the calculated ADP concentration in the substrate incubated wells. Activity knock out was calculated by percentage activity relative to purified wild-type protein at the same concentration.

[4] = Thermostability, ProteoStat Thermal Shift Stability Kit, temperature of aggregation; format: physicochemical
How it was run: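 Proteins at ~10 mg/ml in citric acid/dibasic sodium phosphate buffer, pH 2.8 to 7.1, with ProteoStat TS detection reagent. Heated 25 °C to 95 °C at 0.5 °C per 30 sec, fluorescence monitored with a Texas Red filter.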

Molecule | AVG proportion activity, percentage AMP + ATP→2ADP converted relative to wild-type [3] | SGF Half-life (t½) [1] | Half-life [1] | % Remaining at 10 min [2] | further results
SEQID-00647: protein of the 168 nutritive polypeptide library (protein, Arthrospira platensis C1, protein of the 168 nutritive polypeptide library) MALSKIEEARQLNDDDLSEQILEIKKQLANLRLLKATGRLEKPHEIRHTRHRLSQLLTVERERQLPNQSPA | – | 12 s | 12 s | 12% | –
SEQID-00610: protein of the 168 nutritive polypeptide library (protein, listed as Saccharomyces cerevisiae, strain ATCC 204508 / S288c, protein of the 168 nutritive polypeptide library) MVLEATVLVIDNSEYSRNGDFPRTRFEAQIDSVEFIFQAKRNSNPENTVGLISGAGANPRVLSTFTAEFGKILAGLHDTQIEGKLHMATALQIAQLTLKHRQNKVQHQRIVAFVCSPISDSRDELIRLAKTLKKNNVAVDIINFGEIEQNTELLDEFIAAVNNPQEETSHLLTVTPGPRLLYENIASSPIILEEGSSGMGAFGGSGGDSDANGTFMDFGVDPSMDPELAMALRLSMEEEQQRQERLRQQQQQQDQPEQSEQPEQHQDK | – | 24 s | 24 s | 3.3% | –
SEQID-00601: protein of the 168 nutritive polypeptide library (protein, listed as Agaricus bisporus, var. bisporus; strain H97 / ATCC MYA-4626 / FGSC 10389, protein of the 168 nutritive polypeptide library) MTRSWEPGTQYNLGDVVEYNGDEYKIIQAHSSQSDWAPDRTPALWGKLPHRHHQQGQYQQQQECQPQQPQKTCYDYGKQEQAPQHSDSKEKKNWFGNITESQKQALEVGGGVALGAGLLGGAFAAWKHHQHKEEAHDSFEAWANAARSRAEEFRAKGPQGPATWVYNEGKHIPEQAILVGTEHNWNLYICRAYCDGGVQIGKASDVFKKGAVIGYKEDEHHLDKYEILLGDMRGLKWVQTGNSLDLASLGATPVEGGYENDHTRLYIARAFHKGAKHPGKVSERLDGAYIPYDGKEKCVKEYEVLCYL | – | 12 s | 12 s | 1.1% | Tagg pH 2.8 ([4]; pH 2.8, NS = protein not soluble): 95; Tagg pH 3.7 ([4]; pH 3.7, NS = protein not soluble): 95; Tagg pH 4.3 ([4]; pH 4.3, NS = protein not soluble): 95; Tagg pH 6.5 ([4]; pH 6.5, NS = protein not soluble): 45.5; Tagg (pH 7.1) ([4]; heated 25° C. to 95° C., NS = protein not soluble): 48.5
SEQID-00606: protein of the 168 nutritive polypeptide library (protein, Glycine max, protein of the 168 nutritive polypeptide library) MASEGDHHHHHHHHQDHDHHHHDHDHHHHHDGEGETNSWVGKDGKVYHSHDGLAPHSHEPIYSPGYFTRRAPPLLNRNFNERAFTVGIGGPVGTGKTALMLALCELLRENYSLAAVTNDIFTKEDGEFLVKHKALPEERIRAVETGGCPHAAIREDISINLGPLEELSNLFKADILLCESGGDNLAANFSRELADYIIYIIDVSGGDKIPRKGGPGITQADLLVINKTDLAPAIGADLAVMQRDALRMRDGGPFVFAQVKHKIGVEEIGNLVLQAWEAATGNKRH | – | 18 s | 18 s | 0% | Tagg (pH 7.1) ([4]; heated from 25° C. to 95° C.): 95

The next lines start with results.

AVG proportion activity, percentage AMP + ATP→2ADP converted relative to wild-type [3] | Molecule | SGF Half-life (t½) [1] | Half-life [1] | % Remaining at 10 min [2] | further results
1.2% | R42Q: single amino acid mutant of SEQID-00338 at substrate binding position 42 (protein, listed as Saccharomyces cerevisiae, strain ATCC 204508 / S288c) MSSSESIRMVLIGPPGAGKGTQAPNLQERFHAAHLATGDMLQSQIAKGTQLGLEAKKIMDQGGLVSDDIMVNMIKDELTNNPACKNGFILDGFPRTIPQAEKLDQMLKEQGTPLEKAIELKVDDELLVARITGRLIHPASGRSYHKIFNPPKEDMKDDVTGEALVQRSDDNADALKKRLAAYHAQTEPIVDFYKKTGIWAGVDASQPPATVWADILNKLGKD | – | – | – | –
1.9% | R42T: single amino acid mutant of SEQID-00338 at substrate binding position 42 (protein, listed as Saccharomyces cerevisiae, strain ATCC 204508 / S288c) MSSSESIRMVLIGPPGAGKGTQAPNLQERFHAAHLATGDMLTSQIAKGTQLGLEAKKIMDQGGLVSDDIMVNMIKDELTNNPACKNGFILDGFPRTIPQAEKLDQMLKEQGTPLEKAIELKVDDELLVARITGRLIHPASGRSYHKIFNPPKEDMKDDVTGEALVQRSDDNADALKKRLAAYHAQTEPIVDFYKKTGIWAGVDASQPPATVWADILNKLGKD | – | – | – | –
0.9% | D91F: single amino acid mutant of SEQID-00338 at magnesium ion binding site position 91 (protein, listed as Saccharomyces cerevisiae, strain ATCC 204508 / S288c) MSSSESIRMVLIGPPGAGKGTQAPNLQERFHAAHLATGDMLRSQIAKGTQLGLEAKKIMDQGGLVSDDIMVNMIKDELTNNPACKNGFILFGFPRTIPQAEKLDQMLKEQGTPLEKAIELKVDDELLVARITGRLIHPASGRSYHKIFNPPKEDMKDDVTGEALVQRSDDNADALKKRLAAYHAQTEPIVDFYKKTGIWAGVDASQPPATVWADILNKLGKD | – | – | – | –
0.4% | D91I: single amino acid mutant of SEQID-00338 at magnesium ion binding site position 91 (protein, listed as Saccharomyces cerevisiae, strain ATCC 204508 / S288c) MSSSESIRMVLIGPPGAGKGTQAPNLQERFHAAHLATGDMLRSQIAKGTQLGLEAKKIMDQGGLVSDDIMVNMIKDELTNNPACKNGFILIGFPRTIPQAEKLDQMLKEQGTPLEKAIELKVDDELLVARITGRLIHPASGRSYHKIFNPPKEDMKDDVTGEALVQRSDDNADALKKRLAAYHAQTEPIVDFYKKTGIWAGVDASQPPATVWADILNKLGKD | – | – | – | –
